Experiments:
HeLa Kyoto [1] = assay: melting temperature (median over replicates), in situ; higher = more thermally stable
HeLa Kyoto [2] = assay: solubility in G1/S (NP-40 vs SDS abundance) (log2 ratio); higher = more soluble; conditions: cell cycle stage: G1/S
HeLa Kyoto [3] = assay: solubility change mitosis vs G1/S (difference of NP-40 vs SDS log2 ratios) (log2 ratio difference); higher = more soluble in mitosis
HeLa Kyoto [4] = assay: thermal stability score vs G1/S (z-score of summed log2 fold changes over temperatures); higher = more thermally stable than in G1/S
[5] = cell cycle stage: early G1 (4.5 h after nocodazole release)
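Wherever melting temperature (median over replicates), in situ is given: HeLa Kyoto cells synchronized by double thymidine or nocodazole block, proteins quantified by TMT10plex mass spectrometry, three independent biological replicates.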
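Wherever solubility change mitosis vs G1/S (difference of NP-40 vs SDS log2 ratios) is given: synchronized HeLa Kyoto cells (double thymidine block for G1/S, nocodazole release for mitosis), protein amounts in NP-40 versus SDS lysates quantified by mass spectrometry, three biological replicates.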
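Wherever solubility in G1/S (NP-40 vs SDS abundance) is given: HeLa Kyoto cells arrested at G1/S by double thymidine block, proteins quantified by TMT10plex mass spectrometry in mild NP-40 versus SDS extracts, three biological replicates.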
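Wherever thermal stability score vs G1/S (z-score of summed log2 fold changes over temperatures) is given: synchronized HeLa Kyoto cells, proteins quantified by TMT10plex mass spectrometry, three biological replicates, mitosis taken 0.5 h after nocodazole release, G1/S directly after double thymidine block.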

Sequence	melting temperature (HeLa Kyoto [1]; cell cycle stage: G1/S) [°C]	melting temperature (HeLa Kyoto [1]; cell cycle stage: mitosis) [°C]	solubility in G1/S (log2) (HeLa Kyoto [2])	solubility change mitosis (log2) (HeLa Kyoto [3])	thermal stability score (HeLa Kyoto [4]; [5])	thermal stability score (HeLa Kyoto [4]; cell cycle stage: mitosis)
MTSFRLALIQLQISSIKSDNVTRACSFIREAATQGAKIVSLPECFNSPYGAKYFPEYAEKIPGESTQKLSEVAKECSIYLIGGSIPEEDAGKLYNTCAVFGPDGTLLAKYRKIHLFDIDVPGKITFQESKTLSPGDSFSTFDTPYCRVGLGICYDMRFAELAQIYAQRGCQLLVYPGAFNLTTGPAHWELLQRSRAVDNQVYVATASPARDDKASYVAWGHSTVVNPWGEVLAKAGTEEAIVYSDIDLKKLAEIRQQIPVFRQKRSDLYAVEMKKP [NIT2]	54.5	54.4	0.178	-0.0539	-0.442	-1.62
MTSRSTARPNGQPQASKICQFKLVLLGESAVGKSSLVLRFVKGQFHEYQESTIGAAFLTQSVCLDDTTVKFEIWDTAGQERYHSLAPMYYRGAQAAIVVYDITNQETFARAKTWVKELQRQASPSIVIALAGNKADLANKRMVEYEEAQAYADDNSLLFMETSAKTAMNVNDLFLAIAKKLPKSEPQNLGGAAGRSRGVDLHEQSQQNKSQCCSN [RAB5B]	57.4	58.2	0.23	-0.207	-0.307	-2.64
MTSSGPGPRFLLLLPLLLPPAASASDRPRGRDPVNPEKLLVITVATAETEGYLRFLRSAEFFNYTVRTLGLGEEWRGGDVARTVGGGQKVRWLKKEMEKYADREDMIIMFVDSYDVILAGSPTELLKKFVQSGSRLLFSAESFCWPEWGLAEQYPEVGTGKRFLNSGGFIGFATTIHQIVRQWKYKDDDDDQLFYTRLYLDPGLREKLSLNLDHKSRIFQNLNGALDEVVLKFDRNRVRIRNVAYDTLPIVVHGNGPTKLQLNYLGNYVPNGWTPEGGCGFCNQDRRTLPGGQPPPRVFLAVFVEQPTPFLPRFLQRLLLLDYPPDRVTLFLHNNEVFHEPHIADSWPQLQDHFSAVKLVGPEEALSPGEARDMAMDLCRQDPECEFYFSLDADAVLTNLQTLRILIEENRKVIAPMLSRHGKLWSNFWGALSPDEYYARSEDYVELVQRKRVGVWNVPYISQAYVIRGDTLRMELPQRDVFSGSDTDPDMAFCKSFRDKGIFLHLSNQHEFGRLLATSRYDTEHLHPDLWQIFDNPVDWKEQYIHENYSRALEGEGIVEQPCPDVYWFPLLSEQMCDELVAEMEHYGQWSGGRHEDSRLAGGYENVPTVDIHMKQVGYEDQWLQLLRTYVGPMTESLFPGYHTKARAVMNFVVRYRPDEQPSLRPHHDSSTFTLNVALNHKGLDYEGGGCRFLRYDCVISSPRKGWALLHPGRLTHYHEGLPTTWGTRYIMVSFVDP [PLOD3]	54.2	55	-0.074	0.039	2.65	3.82
MTTDEGAKNNEESPTATVAEQGEDITSKKDRGVLKIVKRVGNGEETPMIGDKVYVHYKGKLSNGKKFDSSHDRNEPFVFSLGKGQVIKAWDIGVATMKKGEICHLLCKPEYAYGSAGSLPKIPSNATLFFEIELLDFKGEDLFEDGGIIRRTKRKGEGYSNPNEGATVEIHLEGRCGGRMFDCRDVAFTVGEGEDHDIPIGIDKALEKMQREEQCILYLGPRYGFGEAGKPKFGIEPNAELIYEVTLKSFEKAKESWEMDTKEKLEQAAIVKEKGTVYFKGGKYMQAVIQYGKIVSWLEMEYGLSEKESKASESFLLAAFLNLAMCYLKLREYTKAVECCDKALGLDSANEKGLYRRGEAQLLMNEFESAKGDFEKVLEVNPQNKAARLQISMCQKKAKEHNERDRRIYANMFKKFAEQDAKEEANKAMGKKTSEGVTNEKGTDSQAMEEEKPEGHV [FKBP5]	46.7	48.6	0.0823	-0.124	2.48	4.23
MTTFGAVAEWRLPSLRRATLWIPQWFAKKAIFNSPLEAAMAFPHLQQPSFLLASLKADSINKPFAQQCQDLVKVIEDFPAKELHTIFPWLVESIFGSLDGVLVGWNLRCLQGRVNPVEYSIVMEFLDPGGPMMKLVYKLQAEDYKFDFPVSYLPGPVKASIQECILPDSPLYHNKVQFTPTGGLGLNLALNPFEYYIFFFALSLITQKPLPVSLHVRTSDCAYFILVDRYLSWFLPTEGSVPPPLSSSPGGTSPSPPPRTPAIPFASYGLHHTSLLKRHISHQTSVNADPASHEIWRSETLLQVFVEMWLHHYSLEMYQKMQSPHAKLEVLHYRLSVSSALYSPAQPSLQALHAYQESFTPTEEHVLVVRLLLKHLHAFANSLKPEQASPSAHSHATSPLEEFKRAAVPRFVQQKLYLFLQHCFGHWPLDASFRAVLEMWLSYLQPWRYAPDKQAPGSDSQPRCVSEKWAPFVQENLLMYTKLFVGFLNRALRTDLVSPKHALMVFRVAKVFAQPNLAEMIQKGEQLFLEPELVIPHRQHRLFTAPTFTGSFLSPWPPAVTDASFKVKSHVYSLEGQDCKYTPMFGPEARTLVLRLAQLITQAKHTAKSISDQCAESPAGHSFLSWLGFSSMDTNGSYTANDLDEMGQDSVRKTDEYLEKALEYLRQIFRLSEAQLRQFTLALGTTQDENGKKQLPDCIVGEDGLILTPLGRYQIINGLRRFEIEYQGDPELQPIRSYEIASLVRTLFRLSSAINHRFAGQMAALCSRDDFLGSFCRYHLTEPGLASRHLLSPVGRRQVAGHTRGPRLSLRFLGSYRTLVSLLLAFFVASLFCVGPLPCTLLLTLGYVLYASAMTLLTERGKLHQP [SMPD4]	51.7	50.2	-0.601	0.185	-0.683	-0.99
MTTLDDKLLGEKLQYYYSSSEDEDSDHEDKDRGRCAPASSSVPAEAELAGEGISVNTGPKGVINDWRRFKQLETEQREEQCREMERLIKKLSMTCRSHLDEEEEQQKQKDLQEKISGKMTLKEFAIMNEDQDDEEFLQQYRKQRMEEMRQQLHKGPQFKQVFEISSGEGFLDMIDKEQKSIVIMVHIYEDGIPGTEAMNGCMICLAAEYPAVKFCKVKSSVIGASSQFTRNALPALLIYKGGELIGNFVRVTDQLGDDFFAVDLEAFLQEFGLLPEKEVLVLTSVRNSATCHSEDSDLEID [PDCL]		51.5	-0.0669	0.0999	0.206	-0.546
MTTPANAQNASKTWELSLYELHRTPQEAIMDGTEIAVSPRSLHSELMCPICLDMLKNTMTTKECLHRFCSDCIVTALRSGNKECPTCRKKLVSKRSLRPDPNFDALISKIYPSREEYEAHQDRVLIRLSRLHNQQALSSSIEEGLRMQAMHRAQRVRRPIPGSDQTTTMSGGEGEPGEGEGDGEDVSSDSAPDSAPGPAPKRPRGGGAGGSSVGTGGGGTGGVGGGAGSEDSGDRGGTLGGGTLGPPSPPGAPSPPEPGGEIELVFRPHPLLVEKGEYCQTRYVKTTGNATVDHLSKYLALRIALERRQQQEAGEPGGPGGGASDTGGPDGCGGEGGGAGGGDGPEEPALPSLEGVSEKQYTIYIAPGGGAFTTLNGSLTLELVNEKFWKVSRPLELCYAPTKDPK [RING1]		50	-0.00962	0.222	0.769	1.05
MTTSGALFPSLVPGSRGASNKYLVEFRAGKMSLKGTTVTPDKRKGLVYIQQTDDSLIHFCWKDRTSGNVEDDLIIFPDDCEFKRVPQCPSGRVYVLKFKAGSKRLFFWMQEPKTDQDEEHCRKVNEYLNNPPMPGALGASGSSGHELSALGGEGGLQSLLGNMSHSQLMQLIGPAGLGGLGGLGALTGPGLASLLGSSGPPGSSSSSSSRSQSAAVTPSSTTSSTRATPAPSAPAAASATSPSPAPSSGNGASTAASPTQPIQLSDLQSILATMNVPAGPAGGQQVDLASVLTPEIMAPILANADVQERLLPYLPSGESLPQTADEIQNTLTSPQFQQALGMFSAALASGQLGPLMCQFGLPAEAVEAANKGDVEAFAKAMQNNAKPEQKEGDTKDKKDEEEDMSLD [ADRM1]	51.3	51.1	0.469	-0.24	0.363	-2.12
MTTSHMNGHVTEESDSEVKNVDLASPEEHQKHREMAVDCPGDLGTRMMPIRRSAQLERIRQQQEDMRRRREEEGKKQELDLNSSMRLKKLAQIPPKTGIDNPMFDTEEGIVLESPHYAVKILEIEDLFSSLKHIQHTLVDSQSQEDISLLLQLVQNKDFQNAFKIHNAITVHMNKASPPFPLISNAQDLAQEVQTVLKPVHHKEGQELTALLNTPHIQALLLAHDKVAEQEMQLEPITDERVYESIGQYGGETVKIVRIEKARDIPLGATVRNEMDSVIISRIVKGGAAEKSGLLHEGDEVLEINGIEIRGKDVNEVFDLLSDMHGTLTFVLIPSQQIKPPPAKETVIHVKAHFDYDPSDDPYVPCRELGLSFQKGDILHVISQEDPNWWQAYREGDEDNQPLAGLVPGKSFQQQREAMKQTIEEDKEPEKSGKLWCAKKNKKKRKKVLYNANKNDDYDNEEILTYEEMSLYHQPANRKRPIILIGPQNCGQNELRQRLMNKEKDRFASAVPHTTRSRRDQEVAGRDYHFVSRQAFEADIAAGKFIEHGEFEKNLYGTSIDSVRQVINSGKICLLSLRTQSLKTLRNSDLKPYIIFIAPPSQERLRALLAKEGKNPKPEELREIIEKTREMEQNNGHYFDTAIVNSDLDKAYQELLRLINKLDTEPQWVPSTWLR [MPP5]	48	50.7	0.0594	0.00906	0.62	2.56
MTTSTLQKAIDLVTKATEEDKAKNYEEALRLYQHAVEYFLHAIKYEAHSDKAKESIRAKCVQYLDRAEKLKDYLRSKEKHGKKPVKENQSEGKGSDSDSEGDNPEKKKLQEQLMGAVVMEKPNIRWNDVAGLEGAKEALKEAVILPIKFPHLFTGKRTPWRGILLFGPPGTGKSYLAKAVATEANNSTFFSVSSSDLMSKWLGESEKLVKNLFELARQHKPSIIFIDEVDSLCGSRNENESEAARRIKTEFLVQMQGVGNNNDGTLVLGATNIPWVLDSAIRRRFEKRIYIPLPEEAARAQMFRLHLGSTPHNLTDANIHELARKTEGYSGADISIIVRDSLMQPVRKVQSATHFKKVCGPSRTNPSMMIDDLLTPCSPGDPGAMEMTWMDVPGDKLLEPVVCMSDMLRSLATTRPTVNADDLLKVKKFSEDFGQES [VPS4A]	48.6	49.7	0.393	-0.128	1.11	1.47
MTVSGPGTPEPRPATPGASSVEQLRKEGNELFKCGDYGGALAAYTQALGLDATPQDQAVLHRNRAACHLKLEDYDKAETEASKAIEKDGGDVKALYRRSQALEKLGRLDQAVLDLQRCVSLEPKNKVFQEALRNIGGQIQEKVRYMSSTDAKVEQMFQILLDPEEKGTEKKQKASQNLVVLAREDAGAEKIFRSNGVQLLQRLLDMGETDLMLAALRTLVGICSEHQSRTVATLSILGTRRVVSILGVESQAVSLAACHLLQVMFDALKEGVKKGFRGKEGAIIVDPARELKVLISNLLDLLTEVGVSGQGRDNALTLLIKAVPRKSLKDPNNSLTLWVIDQGLKKILEVGGSLQDPPGELAVTANSRMSASILLSKLFDDLKCDAERENFHRLCENYIKSWFEGQGLAGKLRAIQTVSCLLQGPCDAGNRALELSGVMESVIALCASEQEEEQLVAVEALIHAAGKAKRASFITANGVSLLKDLYKCSEKDSIRIRALVGLCKLGSAGGTDFSMKQFAEGSTLKLAKQCRKWLCNDQIDAGTRRWAVEGLAYLTFDADVKEEFVEDAAALKALFQLSRLEERSVLFAVASALVNCTNSYDYEEPDPKMVELAKYAKQHVPEQHPKDKPSFVRARVKKLLAAGVVSAMVCMVKTESPVLTSSCRELLSRVFLALVEEVEDRGTVVAQGGGRALIPLALEGTDVGQTKAAQALAKLTITSNPEMTFPGERIYEVVRPLVSLLHLNCSGLQNFEALMALTNLAGISERLRQKILKEKAVPMIEGYMFEEHEMIRRAATECMCNLAMSKEVQDLFEAQGNDRLKLLVLYSGEDDELLQRAAAGGLAMLTSMRPTLCSRIPQVTTHWLEILQALLLSSNQELQHRGAVVVLNMVEASREIASTLMESEMMEILSVLAKGDHSPVTRAAAACLDKAVEYGLIQPNQDGE [UNC45A]	48.6	48.8	0.2	-0.111	0.271	1.37

Reference: the supplement of paper PMC5998384
